# Test: soluble on expression in E. coli; label from the status in PepcDB or PDB records
row,Sequence,soluble on expression in E. coli
1,MDRFKVVVTDYEFQTLAPEQEVLSSLNVEFVATQCRTEEEVISACRDADAIINQYAPISAEVIAQLEKCKIISRYGVGVNTVDVDAATEKGIIVANVTDYSIDEVSDHALALLLSLARKIVKLNHEVKSGTWNFNVGKPIYRLRGRTLGLVGLGRIPQALAKKAQAFGLRVIAYDPYVPAKVADELNVQLLGLNDVFRQSDYISVHAPLTKETKGMISDEQFNLAKKELIIVNTARGPVIDESALIRALQEGKISGAGLDVTECEPIQPDNPLLKMENVVITPHVAWYSEESEKELKRKTAQNVADVLSGYYPTYLVNHNVKEKMRLKEKGLYV,soluble
2,MPIVNQSSLVPYSAEQMYQLVNDYEKYPQFLSGCIGAKTISRGNNELEAELQIQKLGISQSFSTHNKMLPNERIEMKLVNGPFRQLQGAWNFQPFDEQSCKISLYLEFEFSNPVVGMVFGKIFNELTLKMVNAFKQRAKEVYGVLEHHHHHH,soluble
3,MGSDKIHHHHHHLLDYAGAIEEFSHALQLTPYFAEAYLQRGLAYYDSGAILKAVSDYTEALKLNPESVEAYYCRGLARVALKNLPGALEDVERAIRLNLNYAAAYNLRGMVRRKQGYVQDAIANFKKAAQLYLEQQDKENCRLCLERIKQLQPQELPVLQQSRSPNAPILSTNDYFTQLLEKAEKGDTQEALADLNWVLKADSQDAQAYCCRGVVRCKMGDYREAIADFNQALRLNFQDAIVYRNRGKARSILGDHQGAIADLNQALQMQPQDALVYIARGNAYRSTGNYLGAIQDYTQALQINPDDAQAYYNRGIAYTCLEEMQNAVEDYQRAASIFCEQEDWGNYQQVLSSLEKIQKFSPQSKKQKYNLLHQRLLQMVGGYWEIAERLIQQKQDYHPGMSDEWYLQKVIDDLERDRGR,not soluble
4,KGLMSKVKVITRGEATRLINKEDAVVVDLRQRDDFRKGHIAGAINLLPSDIKANNVGELEKHKSQPIIVVDGSGMQAQEPASALNKAGFEKVFVLKEGIAGWSGENLPLVRGK,not soluble
5,KNFHVVLEAAWLVRDVKTADDAIGVAISEAGKRLNPKLDFVEVDVGTTSCPVCGEPFSSVFIAANTALVGLIFEMKVFDAESAEHAERIAKSVIGKSLRDVP,not soluble
6,MYHVFFNRRPTRPRLPRALYEQLAALPLNTEVNVHTTNETHYNALFLGFEPRTNNVSLLVDRFYKDGGRSLAIDATTITAIDLPVSMRPASSADSDDEEE,not soluble
7,MMKFDWNNPYPSTRIPVFARNVVATSHPLAAQAGLRILALGGNAADAAVASAATLALVEPASNGLGSDCFALVWDGARLHGLNASGTAPAAWSPGYFQRKHQGAIPLRGWDSVTIPGCVAGWASLHDKLGSLPFADVLAPAIEYAERGFAVPPTVQRRWADQVDPLRSLPGFAEHFLPHGRAPEVGEHFVLAGAAATLRRIAASGGRDFYEGETAQKLVAHAQAHEAALTLGDLRDYAPQWVEPISQAYRGHALHQLPPNGQGLAALIALGIVEHFDLASRPAEHPDTQHILIEAMKLAFADVHAHVADAAHIRIRVEQLLDPAYLAERARLIDLRRARVYNAAQAPQGGTVYLACADRNGMMVSFTQSNYMGFGSGIVVPGTGISLQNRGCCFSMDPDHPNVVGGGKRPFHTGIPAFLTQDGAPLMSFGIMGGNMQPQGHLQALVRMLDYRQQPQAACDAPRWKWNRGLSVDIEAAMPAQVTDALRARGHIVEVAAPADKDFGSGQFIWRLGDPAVDGYVAASDSRRDGLAAGFLEHHHHHH,not soluble
8,QSRTPTIFFHGYGSSANAETHMTNAAKKAGVTKTVILAYVDQNGHVTLVGKIPKNAINPIVKVNFADNRNADYDTDAKYAKAVVSKLQKTYHFKKMNMVGHSMGNMAINFYMLANAEDKTLPQLQKQVDIAGHFDGIKNYDLPQNLTINAKTGQPNAMTAAYKRLLKLQERYPKDQVDVLNLYGDKGDGSDGIVTNDSSRTLKYLIGERAKSYQEHRFTGKLAGHSKLHENPQVDKFLINFLWGK,not soluble
9,MGHHHHHHSHRASRKICFVCKKKGAAINCQKDQCLRNFHLPCGQERGCLSQFFGEYKSFCDKHRPTQNIQHGHVGEESCILCCEDLSQQSVENIQSPCCSQAIYHRKCIQKYAHTSAKHFFKCPQCNNRKEFPQEMLRMGIHIPDR,not soluble
10,MAKSPVEVNLIPIEATPENFAEYGQVIEASRDGAGFGPHDAQLDLSRGTPRLYILRLKETPLGFFKITHHAKVTQCLGSIGGDVWYMGVAKPSLIEDDDDDGRSVDTVKSKSGHLYIPPEVEEIRVFRFSGPKFVKLHRGTWHAGPLFSGSSFMDFYNLELSNTNVSEEWF,soluble
11,MQPASAKWYDRRDYVFIEFCVEDSKDVNVNFEKSKLTFSCLGGSDNFKHLNEIDLFHCIDPNDSKHKRTDRSILCCLRKGESGQSWPRLTKERAKLNWLSVDFNNWKDWEDDSDEDMSNFDRFSEMMNNMGGDEDVDLPEVDGADDDSQDSDDEKMPDLE,not soluble
12,AMEVHPISEFASPFEVFKCIERDFKVAGLLESIGGPQYKARYSVIAWSTNGYLKIHDDPVNILNGYLKDLKLADIPGLFKGGMIGYISYDAVRFWEKIRDLKPAAEDWPYAEFFTPDNIIIYDHNEGKVYVNADLSSVGGCGDIGEFKVSFYDESLNKNSYERIVSESLEYIRSGYIFQVVLSRFYRYIFSGDPLRIYYNLRRINPSPYMFYLKFDEKYLIGSSPELLFRVQDNIVETYPIAGTRPRGADQEEDLKLELELMNSEKDKAEHLMLVDLARNDLGKVCVPGTVKVPELMYVEKYSHVQHIVSKVIGTLKKKYNALNVLSATFPAGTVSGAPKPMAMNIIETLEEYKRGPYAGAVGFISADGNAEFAIAIRTAFLNKELLRIHAGAGIVYDSNPESEYFETEHKLKALKTAIGVR,soluble
13,MYCQRLRQLRKAHKLTMEQLAEKIGIAKSSYGGYEAESKKPPLDKLVILARLYDVSVDYILGLTDDPDPKVERKNLKEFLEKPDIHWDGYKLTPEILDPIRKILKLVTANNN,not soluble
14,MSLDIKQLKFLIALDQTRHFGQAAALCHITQPTLSMRLRNLEDELDLVLVKRGQRFEGFTEAGERILAWARTLLAAHDGLQAEAASCRGQVVGSLRLGTVPLASFNPMHLLLPLREKYPELHFQLSSLSSEQVIDGLSRNQLDLGICYLDQVNTSFFEVIELGTTTMGLLHDTRHFQFTSDRLRWDELGDIPLGLLSKGMHYRQSLDLSFRSRGLEPNAVLESDSSFQLIQAINTGICCAIMPLDCGLEDLSEHLRIVPVADAAIHSPVGLLLRRSEPRSAIAEQCFAEARGLFQASEGHHHHHH,soluble
15,GVFTFEDEINSPVAPATLYKALVTDADNVIPKALDSFKSVENVEGNGGPGTIKKITFLEDGETKFVLHKIESIDEANLGYSYSVVGGAALPDTAEKITFDSKLVAGPNGGSAGKLTVKYETKGDAEPNQDELKTGKAKADALFKAIEAYLLAHPDYN,soluble
16,DLRRQLRKAVMDHVSDSFLETNVPLLVLIEAAKNGNEKEVKEYAQVFREHANKLIEVANLACSISNNEEGVKLVRMSASQLEALCPQVINAALALAAKPQSKLAQENMDLFKEQWEKQVRVLTDAVDDITSIDDFLAVSENHILEDVNKCVIALQEKDVDGLDRTAGAIRGRAARVIHVVTSEMDNYEPGVYTEKVLEATKLLSNTVMPRFTEQVEAAVEALSSDPAQPMDENEFIDASRLVYDGIRDIRKAVLMI,soluble
17,MKETRDLETLSVNAIRFLAIDAVEKARSGHPGMPMGMAPLAYLLFREVMRHNPLDPDWPDRDRFVLSAGHGSMLLYAVLHLTGYDLPLEELKSFRQWGSKTPGHPERGHTPGVEVTTGPLGQGISTAVGLALAERKLAAEFNRPGHVVVDHYTYVLASDGDLMEGVSGEAASLAGHWGLSKLIVFWDDNRISIDGPTDLAFTEDVLARYRAYGWQTLRVEDVNDLEALRKAIKLAKLDERPTLIAVRSHIGFGSPKQDSAKAHGEPLGPEAVEATRRNLGWPYPPFVVPEEVYRHMDMREKGRAWQEAWEKALEAYARAYPDLHQELMRRLRGELPPLPEEPPSFDKPIATRAASGRALNLLAPRLPELLGGSADLTPSNNTKAEGMEDFSRANPLGRYLHFGVREHAMGAILNGLNLHGGYRAYGGTFLVFSDYMRPAIRLAALMGVPTVFVFTHDSIALGEDGPTHQPVEHLMSLRAMPNLFVIRPADAYETFYAWLVALRRKEGPTALVLTRQAVPLLSPEKARGLLRGGYVLEDVEEPQGVLVATGSEVHLALRAQALLREKGVRVRVVSLPSFELFAAQPEAYRKEVLPPGLPVVAVEAGASLGWERYAHKVVALDRFGASAPYPEVYERLGFTPERVAEAFLSLV,soluble

# From the DeepSol protein solubility set
